Test: soluble on expression in E. coli; label from the status in PepcDB or PDB records

With “MGSDKIHHHHHHMRWIAPTEKDVAAATLEKRLWAAADELRANSGLKSAEYSQPILGLIFLKFADARFAVRRAELAKVTTGRRGSRVDDPASYHAEGVLFLASEARFSELLEFPEGGRDGKTLGQAVDDAMRAVERDNEQLAGVLPKTYQQFKARPLKELLKAFSAIPVDLEGDSFGKIYEYFLGEFAMAEGQGGGEFYTPQPIVRLMVEILEPFKGRVLDPACGSGGMFVQSARFVSEHKKNGGLAIHGVEKVDTTGQLCRMNLAVHGLEGDIRHGGEINSYYDDPHNAVGRFDFVLANPPFNVDKVDKDRIRDAVGPGRRFPFGVPNVDNANYLWIQLFYSALNESGRAGFVMASSAPDARASEQELRRKLIESRAVDVIISVGSKMFYTVALPCTLWFLDRGKPKDRRDKVLFIDAQHIYRQVDRAHRDWTEAQIGFLANVARLFRREEVDLTFGGAEAKYRLREVFGNKPTYADVAGFCKAATISEIEKQAWSLNPGRYVGAAQGEEVSDEDFRTQFEGLAEEFETLTAEAREFEKVITKTAAEILG” as the sequence, how does the “soluble on expression in E. coli” value read?
The value was “not soluble”.

For “AGHRGQCVGRHREVVAIDNSKATNPHAADSALAGFSSVVWVAGGQLKGAEIDELIVRHAGRIKAVALLGVDRDVIEDSVRTHIPGIPVLSVSETDPRRAMDEAVAWSVSQAEAGDAIVLAPAAASLDMYTGMGQRGDMFATAI”, which “soluble on expression in E. coli” value is on record?
The value was “not soluble”.

For MEEQNANQMLTDILSFMKSGKRAAALEHHHHHH, which “soluble on expression in E. coli” value is on record?
Its value is “soluble”.

With “HMMQSWSAPAIPVVPGRGPALRLFDSADRQVRPVTPGPTATMYVCGITPYDATHLGHAATYLTFDLVHRLWLDAGHTVQYVQNVTDVDDPLFERAERDGIDWRTLGDRETQLFREDMAALRVLPPHDYVAATDAIAEVVEMVEKLLASGAAYIVEDAEYPDVYFRADATAQFGYESGYDRDTMLTLFAERGGDPDRPGKSDQLDALLWRAERPGEPSWPSPFGRGRPGWHVECSAIALTRIGTGLDIQGGGSDLIFPHHEYSAAHAESVTGERRFARHYVHTGMIGWDGHKMSKSRGNLVLVSQLRAQGVDPSAIRLGLFSGHYREDRFWSNEVLDEANARLARWRSATALPEAPDATDVIARVRQYLADDLDTPKALAALDGWCTDALSYGGHDTESPRLVATTVDALLGVDL” as the sequence, how does the “soluble on expression in E. coli” value read?
Its value is “soluble”.

Which “soluble on expression in E. coli” value does the source give for “MSLQLSKAAEMCYEITNSYLHIDQKSQIIASTQEAIRLTRKYLLSEIFVRWSPLNGEISFSYNGGKDCQVLLLLYLSCLWEYFFIKAQNSQFDFEFQSFPMQRLPTVFIDQEETFPTLENFVLETSERYCLSLYESQRQSGASVNMADAFRDFIKIYPETEAIVIGIRHTDPFGEALKPIQRTDSNWPDFMRLQPLLHWDLTNIWSFLLYSNEPICGLYGKGFTSIGGINNSLPNPHLRKDSNNPALHFEWEIIHAFGKDAEGERSSAINTSPISVVDKERFSKYHDNYYPGWYLVDDTLERAGRIKNEGHHHHHH” here?
The value was “soluble”.

With “MGKTNLAPGFRFHPTDVELVRYYLKRKVMGKKFQVDAIAEVDIYKFEPPDLPDKSCLGTGDLKWYFFCPREKKYPKGGKANRSTECGYWKTTGRDRDVSYNDEVTGKIRTLIYHYGKIPRGDRTDWVIHEYRLEDKVLAQKNVPQDTYVLCVLFKKNGLGPRHGSQYGAPFKEEDWSDKEEEYTQNHLVAGPSKETSLAAKASHSYAPKDGLTGVISESCVSDVPPLTATVLPPLTSDVIAYNPFSSSPLLEVPQVSLDGGELNSMLDLFSVDNDDCLLFDDFDYHNEVRHPDGFVNKEAPVFLGDGNFSGMFDLSNDQVVELQDLIQSPTPHPPSPPAQASIPDDSRSNGQTKDD” as the sequence, how does the “soluble on expression in E. coli” value read?
The value was “soluble”.

Which “soluble on expression in E. coli” value does the source give for “KKILVIGDLIADYYLWGKSERLSPEAPVPVLEVQRESKNLGGAANVANNLISLKAKVFLCGVVGDDLEGEHFISALKARGIDASGILIDKTRCTTLKTRIIAQNQQIARVDKEIKDPLNADLRKKLLDFFTEKIQEIDGVILSDYNKGVLDFELTQAMIALANQHHKLILCDPKGKDYSKYSHASLITPNRTELEHALHLKLDSHANLSKALQILKETYHIAMPLVTLSEQGIAFLEKGELVNCPTIAKEVYDVTGAGDTVIASLTLSLLESMSLKDACEFANAAAAVVVGKMGSALASLEEIALILNQTHPKILSLE” here?
The value was “not soluble”.

With “MRNIAEAYFQNMVETATPLEQIILLYDKAIECLERAIEIYDQVNELEKRKEFVENIDRVYDIISALKSFLDHEKGKEIAKNLDTIYTIILNTLVKVDKTKEELQKILEILKDLREAWEEVKKKVHHHHHH” as the sequence, how does the “soluble on expression in E. coli” value read?
Its value is “soluble”.
